Results on three molecules are retold here after publication PMC6715182, “Helicobacter pylori senses bleach (HOCl) as a chemoattractant using a cytosolic chemoreceptor” (PLoS Biology, 2019).

The term Kd denotes the free concentration of one partner at which half of the binding sites on the other are occupied at equilibrium, for simple one-to-one binding. What is called stoichiometry N is the number of molecules, sites or subunits per partner or assembly.

The target in data set [1] is T1, CheW-CheA complex (4 μM CheA with 40 μM CheW) (H. pylori (G27 strain) | H. pylori (SS1 …, UniProt B5Z859 1-807; O25152 1-165).
T1 sequence 1: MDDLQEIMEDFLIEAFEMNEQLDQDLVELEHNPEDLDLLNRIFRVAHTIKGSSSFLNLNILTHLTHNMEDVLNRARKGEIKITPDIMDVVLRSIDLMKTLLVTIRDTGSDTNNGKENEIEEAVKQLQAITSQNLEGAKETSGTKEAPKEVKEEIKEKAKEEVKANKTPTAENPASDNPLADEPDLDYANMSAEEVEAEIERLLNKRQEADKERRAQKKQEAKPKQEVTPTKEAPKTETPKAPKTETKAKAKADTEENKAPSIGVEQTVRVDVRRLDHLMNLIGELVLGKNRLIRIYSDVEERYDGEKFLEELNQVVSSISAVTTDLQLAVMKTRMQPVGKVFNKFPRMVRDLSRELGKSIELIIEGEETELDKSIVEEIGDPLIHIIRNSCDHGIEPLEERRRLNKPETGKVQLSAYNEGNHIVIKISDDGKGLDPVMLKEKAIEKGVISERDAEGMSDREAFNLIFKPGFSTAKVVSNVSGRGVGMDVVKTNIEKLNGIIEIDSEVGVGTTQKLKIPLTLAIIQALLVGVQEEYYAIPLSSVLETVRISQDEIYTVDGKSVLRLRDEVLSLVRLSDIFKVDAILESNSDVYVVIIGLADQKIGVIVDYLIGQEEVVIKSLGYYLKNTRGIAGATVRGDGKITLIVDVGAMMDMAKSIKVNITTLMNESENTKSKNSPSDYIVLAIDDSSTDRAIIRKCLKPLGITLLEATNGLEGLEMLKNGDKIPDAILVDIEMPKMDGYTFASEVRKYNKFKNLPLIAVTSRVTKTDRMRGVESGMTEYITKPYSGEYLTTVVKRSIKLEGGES
T1 sequence 2: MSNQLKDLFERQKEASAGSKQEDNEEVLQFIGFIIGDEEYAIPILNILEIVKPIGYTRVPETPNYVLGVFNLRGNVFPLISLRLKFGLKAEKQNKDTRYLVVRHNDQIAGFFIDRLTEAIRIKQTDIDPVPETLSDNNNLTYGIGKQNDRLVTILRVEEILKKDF
Put plainly: cell-based or functional assay.

Data set [2] concerns the molecule itself. Nature of the data set: AUC; interference; 1, 2 and 3 x 10 μM TlpD and 3 x 28 μM TlpD(-His) in PBS (pH 7), 1 mM TCEP, 20°C, 55,000 rpm; monomer and dimer peaks integrated (SedFit); dimer to monomers.
Data set [3] deals with T1, CheW-CheA complex (4 μM CheA with 40 μM …). Nature of the data set: kinase activity titration (radio-ATP labelling of CheA autophosphorylation); TlpD titrated against 4 μM CheA and 40 μM CheW, 1 mM ATP; kobs values fit to a binding isotherm; CheA-CheW complex approximated as 2 μM; kinetically defined, estimated KD; 50 mM Tris (pH 7.5), 100 mM NaCl, 10 mM MgCl2, 20°C. Conditions: both partners purified.

In data set [4] the target is T2, Helicobacter pylori chemotaxis protein A (CheA), histidine kinase, recombinant (H. pylori (G27 strain), UniProt B5Z859 1-807).
T2 sequence: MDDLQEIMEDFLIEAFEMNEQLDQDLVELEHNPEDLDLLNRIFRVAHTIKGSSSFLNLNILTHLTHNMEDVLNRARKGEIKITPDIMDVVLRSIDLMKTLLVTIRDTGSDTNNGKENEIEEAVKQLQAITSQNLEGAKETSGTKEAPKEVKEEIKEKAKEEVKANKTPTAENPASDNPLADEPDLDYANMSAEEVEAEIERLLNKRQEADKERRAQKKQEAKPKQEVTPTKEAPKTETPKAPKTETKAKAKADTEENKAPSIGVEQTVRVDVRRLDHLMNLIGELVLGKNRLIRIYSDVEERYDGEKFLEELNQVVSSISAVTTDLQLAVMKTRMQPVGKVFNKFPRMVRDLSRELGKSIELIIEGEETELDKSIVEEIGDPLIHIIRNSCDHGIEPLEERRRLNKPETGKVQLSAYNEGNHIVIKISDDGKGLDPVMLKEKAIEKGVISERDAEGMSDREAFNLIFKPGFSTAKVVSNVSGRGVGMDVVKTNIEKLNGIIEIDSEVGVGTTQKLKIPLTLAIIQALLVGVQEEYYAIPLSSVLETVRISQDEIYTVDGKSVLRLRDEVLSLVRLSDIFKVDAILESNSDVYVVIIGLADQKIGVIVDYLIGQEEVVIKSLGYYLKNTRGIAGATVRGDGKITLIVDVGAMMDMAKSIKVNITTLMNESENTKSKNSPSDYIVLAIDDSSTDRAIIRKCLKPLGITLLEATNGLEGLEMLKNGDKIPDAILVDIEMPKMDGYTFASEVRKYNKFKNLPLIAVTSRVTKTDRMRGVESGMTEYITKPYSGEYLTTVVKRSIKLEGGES
Put plainly: cell-based or functional assay.

Data set [5] deals with T2, Helicobacter pylori chemotaxis protein …. Nature of the data set: kinase activity titration (radio-ATP labelling of CheA autophosphorylation); CheW titrated against 4 μM CheA, 1 mM ATP; kobs values fit to a binding isotherm; kinetically defined, estimated KD; 50 mM Tris (pH 7.5), 100 mM NaCl, 10 mM MgCl2, 20°C. Conditions: both partners purified.

B1: Helicobacter pylori transducer-like protein D (TlpD), recombinant, with intact N-terminal His tag (receptor)
chain: not shown
notes: TlpD, cytosolic chemoreceptor of H. pylori strain SS1, Uniprot A0A1U9IUC7; Monomer-dimer equilibrium; copies 2 is the dimer form; also called HpTlpD; TlpD(+His); source: E. coli ArcticExpress DE3, purified (Ni-NTA, gel filtration)
For the molecule B1, the “CheA autophosphorylation (radio-ATP labelling), titration of TlpD against 4 μM CheA and 40 μM CheW, maximal activation over CheA alone” value in data set [1] was found to be 14.6 fold. In data set [2], the Kd is 0.189 µM and the “stoichiometry N” value amounted to 2. The Kd in data set [3] was 15.2 µM.

B2: Helicobacter pylori TlpD lacking the N-terminal His tag, TlpD(-His) (receptor)
chain: not shown
notes: TlpD, cytosolic chemoreceptor of H. pylori strain SS1, Uniprot A0A1U9IUC7; no limits stated; Tag cut by TEV protease; source: E. coli ArcticExpress DE3, purified (Ni-NTA, TEV protease, repurified, gel filtration)
Regarding B2, in data set [2], the equilibrium dissociation constant (Kd) was found to be 0.0648 µM and the “stoichiometry N” value worked out at 2.

B3: Helicobacter pylori chemotaxis protein W (CheW), recombinant (natural protein)
chain: MSNQLKDLFERQKEASAGSKQEDNEEVLQFIGFIIGDEEYAIPILNILEIVKPIGYTRVPETPNYVLGVFNLRGNVFPLISLRLKFGLKAEKQNKDTRYLVVRHNDQIAGFFIDRLTEAIRIKQTDIDPVPETLSDNNNLTYGIGKQNDRLVTILRVEEILKKDF
notes: CheW scaffold protein of H. pylori strain SS1, Uniprot A0A1U9ITT8; no limits stated; source: E. coli ArcticExpress DE3, purified (Ni-NTA, gel filtration)
Consider B3, for which, in data set [4], the “CheA autophosphorylation (radio-ATP labelling), titration of CheW against 4 μM CheA, maximal activation over CheA alone” value is 2.7 fold. Moreover, the dissociation constant (Kd) in data set [5] was 14.6 µM.
